target: mouse CD3epsilon protein (mouse) (UniProt P22646); test: ELISA, antigen coated on plate
Sequence (P22646 22-108 limits assumed): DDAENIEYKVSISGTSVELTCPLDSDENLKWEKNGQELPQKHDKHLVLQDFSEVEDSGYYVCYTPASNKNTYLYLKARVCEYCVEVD

Binder	ELISA A450 [A450]
WBP3311_2.400.5 (antibody, V domains shown) VH: QVQLQQSGPELVNPGASVKISCKASGYSFTNYYLHWVKQRPGQGLEWIGWIFPESDNTKYNEKLKGKATLTADTSSDTAYMHLSSLTFEDSAVYFCARDSVGNYFFDFWGQGTTLTVSS VL: DIVMSQSPSSLAVSAGEKVTMRCKSSQSLVNNRTRKNYLAWYQQKPGQPPKLLIYWASTRESGVPDRFTGSGSGTDFTLTISSVQAEDLAVYYCAQSFILRTFGGGTKLEIK	0.709
WBP3311_2.306.4 (antibody, IgG2b, V domains shown) VH: QVQLQQSGPELVKPGASVRISCKASGFAFTDYYIHWVKQRPGQGLEWIGWISPGNVNTKYNENFKGRATLTADLSSSTAYMQLSSLTSEDSAVYFCARDGYSLYYFDYWGQGTTLTVSS VL: DIVMSQSPSSLTVSAGEKVTMSCKSSQSLLNSRTRKNYLAWYQQKPGQSPKLLIYWASTRQSGVPDRFTGSGSGTAFTLTISGVQAEDLAVYFCTQSHTLRTFGGGTKLEIK	0.711
WBP331_2.488.33 (antibody, V domains shown) VH: QVQLQQSGPELVKPGTSVKISCKASGFSFTNYYIHWVKQRPGQGPEWIGWIFPGTVNTKYNEKFKGKATLTADTSSNTAFMQLSSLTSADSAVYFCARDSVGIYYFDFWGLGTTLTVSS VL: DIVMSQSPSSLAVSAGEKVTVSCKSSQSLLNNRTRKNYLAWYQQKPGQSPKLLIYWASTRESGVPDRFTGSGSGTDFTLTISSVQAEDLAVYYCTQSFILRTFGGGTKLEIK	0.607
WBP3311_2.383.47 (antibody, V domains shown) VH: QVQLQQSGPELVKPGASVRISCKTSGFTFTNYYIHWVIQRPGQGLEWIGWISPENGNTKYNENFQDKATLTADISSSTAYMHLSSLTSEDSAVYFCARDGYSLYYFDYWGQGTTLTVSS VL: DIVMSQSPSSLTVSAGEKVTMSCKSSQSLLNSRTRKNYLAWYQQKPGQSPKLLIYWASIRVSGVPDRFTGSGSGTTFTLTISGVQAEDLAVYYCTQSHTLRTFGGGTKLEIK	0.666

Second part, the binder after the results:

ELISA A450 [A450]	Binder
0.61	WBP3311_2.482.5 (antibody, V domains shown) VH: QVQLQQSGPELVKPGSSVKISCKPSGYTFTTYYIHWVKQRPGQGLEWIGWIFPGSDNIKYNENFKDKATLTADTSSSTAYMQLSSLTSEDSAVYFCARDSVSRYYFDYWGQGTILTVSS VL: DIVMSQSPSSLAVSAGEKVTMSCKSSQSLVNDRTRKNYLAWYQQKPGLSPKLLIYWASTRESGVPDRFTGSGSGTDFTLTISSVQAEDLAVYYCAQSFILRTFGGGTKLEIK
0.6	WBP3311_2.844.8 (antibody, V domains shown) VH: QVQLQQSGPELVKPGASVRISCKASGFAFTDYYIHWVKQRPGQGLEWIGWISPGNVNTKYNENFKGRATLTADLSSSTAYMQLSSLTSEDSAVYFCARDGYSLYYFDYWGQGTTLTVSS VL: DIVMSQSPSSLTVSAGEKVTMSCKSSQSLLNSRTRKNYLAWYQQKPGQSPKLLIYWASTRESGVPDRFTGSGSGTAFTLTISGVQAEDLAVYFCTQSHTLRTFGGGTKLEIK

Source: patent publication US20200299384A1
